The sequences below were run on Escherichia coli TOP10 (assay: shrunken log2 fold change of peptide-encoding DNA abundance (4.5 h post-induction vs induction); higher = less antimicrobial activity (less host growth inhibition)). Conditions: time post-induction: 4.5 h; library: site-saturation at positions 5, 18, 19, 20.
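Further: peptides expressed intracellularly from a pBAD plasmid library in pooled LB shake-flask culture, induced with 0.3% L-arabinose, DNA abundance read by NGS, three biological replicates, DESeq2 with apeglm shrinkage.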

Sequence | shrunken log2 fold change
RRIRIRPPRLPRPRPRPYTKPRP | -0.203
RRIRGRPPRLPRPRPRPLSYPRP | 0.00315
RRIRHRPPRLPRPRPRPNIQPRP | -0.141
RRIRNRPPRLPRPRPRPKVNPRP | 0.0323
RRIRYRPPRLPRPRPRPFIYPRP | -0.86
RRIRMRPPRLPRPRPRPRWNPRP | 0.197
RRIRKRPPRLPRPRPRPKAQPRP | 0.313
RRIRVRPPRLPRPRPRPRTTPRP | 0.378
RRIRERPPRLPRPRPRPGAAPRP | 1.82
RRIRLRPPRLPRPRPRPNRVPRP | -0.0939
RRIRYRPPRLPRPRPRPGDAPRP | 0.0773
RRIRHRPPRLPRPRPRPLQMPRP | -0.147
RRIRPRPPRLPRPRPRPLEDPRP | 0.492
RRIRDRPPRLPRPRPRPKPLPRP | 0.101
RRIRVRPPRLPRPRPRPSAMPRP | 0.0604
RRIRNRPPRLPRPRPRPEDDPRP | -0.01
RRIRERPPRLPRPRPRPELKPRP | 0.138
RRIRGRPPRLPRPRPRPRMKPRP | 0.426
RRIRIRPPRLPRPRPRPWGWPRP | 0.0753
RRIRPRPPRLPRPRPRPYECPRP | 0.0143
RRIRIRPPRLPRPRPRPPQEPRP | -0.0258
RRIRHRPPRLPRPRPRPPYNPRP | -0.642

Sequence | shrunken log2 fold change
RRIRLRPPRLPRPRPRPPEPPRP | 0.232
RRIRYRPPRLPRPRPRPICCPRP | -0.137
RRIRHRPPRLPRPRPRPMKSPRP | -0.00231
RRIRARPPRLPRPRPRPHKFPRP | -0.0967
RRIRWRPPRLPRPRPRPIHVPRP | -0.0677
RRIRDRPPRLPRPRPRPGHVPRP | -0.0651
RRIRYRPPRLPRPRPRPILPPRP | 0.00451
RRIRIRPPRLPRPRPRPVREPRP | 0.201
RRIRDRPPRLPRPRPRPLCAPRP | 0.783
RRIRNRPPRLPRPRPRPNDIPRP | -0.418
RRIRQRPPRLPRPRPRPHWPPRP | -0.0715
RRIRVRPPRLPRPRPRPPNVPRP | -0.0619
RRIRGRPPRLPRPRPRPVWCPRP | 0.245
RRIRPRPPRLPRPRPRPQEHPRP | -0.225
RRIRMRPPRLPRPRPRPTDLPRP | 0.225
RRIRLRPPRLPRPRPRPNRAPRP | 0.0133
RRIRHRPPRLPRPRPRPAKDPRP | -0.0214
RRIRNRPPRLPRPRPRPEEGPRP | 0.234
RRIRSRPPRLPRPRPRPKVSPRP | 0.21
RRIRVRPPRLPRPRPRPSADPRP | -0.397
RRIRARPPRLPRPRPRPNRIPRP | -0.215
RRIRIRPPRLPRPRPRPSPLPRP | -0.499

Sequence | shrunken log2 fold change
RRIRKRPPRLPRPRPRPFHRPRP | -0.0303
RRIRDRPPRLPRPRPRPMVAPRP | 0.00167
RRIRIRPPRLPRPRPRPRRLPRP | -0.0824
RRIRFRPPRLPRPRPRPGSNPRP | -0.624
RRIRERPPRLPRPRPRPYYYPRP | -0.732
RRIRHRPPRLPRPRPRPRACPRP | 0.0227
RRIRTRPPRLPRPRPRPQSDPRP | -0.0398
RRIRPRPPRLPRPRPRPGMSPRP | 0.0989
RRIRFRPPRLPRPRPRPTALPRP | 0.0145
RRIRNRPPRLPRPRPRPFLYPRP | -0.468
RRIRHRPPRLPRPRPRPIQYPRP | -0.122
RRIRTRPPRLPRPRPRPVFDPRP | -0.226
RRIRFRPPRLPRPRPRPMNWPRP | -0.143
RRIRRRPPRLPRPRPRPCCPPRP | 0.467
RRIRIRPPRLPRPRPRPHPKPRP | -0.258
RRIRFRPPRLPRPRPRPREHPRP | 0.0409
RRIRYRPPRLPRPRPRPNRTPRP | -0.211
RRIRARPPRLPRPRPRPHCDPRP | 0.214
RRIRLRPPRLPRPRPRPSNGPRP | -0.00256
RRIRFRPPRLPRPRPRPQAWPRP | 0.15
RRIRCRPPRLPRPRPRPCVMPRP | -0.0643
RRIRMRPPRLPRPRPRPGPNPRP | 0.641

Sequence | shrunken log2 fold change
RRIRYRPPRLPRPRPRPKKKPRP | -0.104
RRIRRRPPRLPRPRPRPQDPPRP | 0.376
RRIRRRPPRLPRPRPRPNPNPRP | 0.369
RRIRLRPPRLPRPRPRPQMTPRP | -0.0928
RRIRWRPPRLPRPRPRPTESPRP | 0.189
RRIRTRPPRLPRPRPRPTYCPRP | -0.379
RRIRVRPPRLPRPRPRPLNMPRP | -1.14
RRIRTRPPRLPRPRPRPYCYPRP | -0.104
RRIRHRPPRLPRPRPRPGYNPRP | -0.418
RRIRGRPPRLPRPRPRPMKVPRP | -0.0224
RRIRYRPPRLPRPRPRPPWKPRP | 0.0467
RRIRLRPPRLPRPRPRPEDMPRP | 0.0524
RRIRARPPRLPRPRPRPVQVPRP | 0.123
RRIRWRPPRLPRPRPRPNRIPRP | -0.115
RRIRKRPPRLPRPRPRPAFWPRP | 0.625
RRIRCRPPRLPRPRPRPVWPPRP | 0.239
RRIRIRPPRLPRPRPRPRVFPRP | 0.0961
RRIRMRPPRLPRPRPRPACPPRP | 0.262
RRIRARPPRLPRPRPRPDCFPRP | 0.715
RRIRCRPPRLPRPRPRPYQTPRP | -0.0384
RRIRWRPPRLPRPRPRPQMFPRP | 0.197
RRIRVRPPRLPRPRPRPGICPRP | -0.0598

Sequence | shrunken log2 fold change
RRIRPRPPRLPRPRPRPRHFPRP | 0.168
RRIRTRPPRLPRPRPRPLCHPRP | -0.175
RRIRRRPPRLPRPRPRPGIAPRP | 0.185
RRIRPRPPRLPRPRPRPVCCPRP | 0.122
RRIRTRPPRLPRPRPRPSFAPRP | -0.126
RRIRNRPPRLPRPRPRPVHYPRP | -0.124
RRIRYRPPRLPRPRPRPGRTPRP | -0.121
RRIRFRPPRLPRPRPRPTMGPRP | 0.0497
RRIRARPPRLPRPRPRPSDVPRP | 0.162
RRIRERPPRLPRPRPRPVDYPRP | 0.0839
RRIRKRPPRLPRPRPRPEFRPRP | 0.129
RRIRDRPPRLPRPRPRPHCCPRP | -0.00968
RRIRSRPPRLPRPRPRPAQAPRP | 0.15
RRIRLRPPRLPRPRPRPHRGPRP | -0.00203
RRIRTRPPRLPRPRPRPTEFPRP | -0.0268
RRIRPRPPRLPRPRPRPMWPPRP | 0.213
RRIRQRPPRLPRPRPRPRQAPRP | 0.0647
RRIRARPPRLPRPRPRPSKIPRP | -0.265
RRIRERPPRLPRPRPRPYAKPRP | -0.329
RRIRYRPPRLPRPRPRPANWPRP | -0.0751
RRIRRRPPRLPRPRPRPHDCPRP | 0.00386
